Patent publication US20190256588A1 (BEIJING HANMI PHARM, published 2019)

These binders were tested against T1, recombinant human IL-17A (human, UniProt Q16552 24-155) (assay: ELISA, recombinant human IL-17A coated at 1 µg/mL, HRP anti-human IgG, OD450nm).
T1 construct: also called IL-17A antigen
Protocol: The antigen binding activity of humanized anti-human IL-17A monoclonal antibody was determined by ELISA. Recombinant human IL-17A (purchased from Sino Biological Inc.) was coated on a 96-well high-absorbing ELISA plate with a carbonate buffer solution with pH 9.6, the coating concentration was 1 μg/mL, the coating amount was 100 μL per well, and the coating was carried at 4° C. out overnight. The plate was washed five times with PBST and blocked with 300 μL/well of PBST containing 1% BSA and incubated at 25° C. for 1 hour. The plate was washed five times with PBST. […] The plate was washed five times with PBST. Then, horseradish peroxidase-labeled anti-human IgG antibody (Chemicon, Catalog Number AP309P) 1:2000 diluted in PBST containing 1% BSA was added, 100 μL was added to each well, incubated at 25° C. for 1 hour. The plate was washed five times with PBST. 100 μL/well of colorimetric substrate TMB was added and incubated at room temperature for 10 minutes. Color development was terminated by adding 100 μL/well of 1 M H2SO₄. The absorbance at 450 nm was read on a microplate reader.

T1 sequence (Q16552 24-155 limits assumed): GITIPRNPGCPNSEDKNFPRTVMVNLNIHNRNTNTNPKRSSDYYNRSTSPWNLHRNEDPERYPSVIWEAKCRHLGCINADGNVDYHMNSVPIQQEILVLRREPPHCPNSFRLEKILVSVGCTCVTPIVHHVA

Row | EC50 | Binder
1 | 87 pM | anti-human IL-17A humanized monoclonal antibody AS15803 (antibody, human IgG1, kappa, V domains shown) VH: QVQVQESGPGLVKPSETLSLTCTVSGNSITSYYAWNWIRQPPGKGLEWMGYITYSGTTSYNPSLKSRITISVDTSKNQFSLKLSSVTAADTAVYYCAREEYDDIYAVDYWGQGTLVTVSS VL: IIVMTQSPLSLPVTLGQPASISCRSSQSLVHSNGNTYLHWYQQRPGQSPRLLIYKVYNRFSGVPDRFSGSGSGTDFTLKISRVEAEDVGVYFCSQSTHFPTFGQGTRLEIKR
2 | 77 pM | anti-human IL-17A humanized monoclonal antibody AS15815 (antibody, human IgG1, kappa, V domains shown) VH: QVQVQESGPGLVKPSETLSLTCTVSGNSITSYYAWNWIRQPPGKGLEWMGYITYSGTTSYNPSLKSRITISRDTSKNQFSLKLSSVTAADTAVYYCAREEYDDIYAVDYWGQGTLVTVSS VL: DVVMTQSPLSLPVTLGQPASISCRSSQSLVHSNGNTYLHWFQQRPGQSPRLLIYKVYNRFSGVPDRFSGSGSGTDFTLKISRVEAEDVGVYYCSQSTHFPTFGQGTRLEIKR

The next lines start with the binder.

Row | Binder | EC50
3 | anti-human IL-17A humanized monoclonal antibody AS15799 (antibody, human IgG1, kappa, V domains shown) VH: QVQVQESGPGLVKPSETLSLTCTVSGNSITSYYAWNWIRQPPGKGLEWMGYITYSGTTSYNPSLKSRVTISRDTSKNQFSLKLSSVTAADTAVYYCAREEYDDIYAVDYWGQGTLVTVSS VL: IIVMTQSPLSLPVTLGQPASISCRSSQSLVHSNGNTYLHWYQQRPGQSPRRLIYKVYNRFSGVPDRFSGSGSGTDFTLKISRVEAEDVGVYYCSQSTHFPTFGQGTRLEIKR | 91 pM
4 | anti-human IL-17A humanized monoclonal antibody AS15805 (antibody, human IgG1, kappa, V domains shown) VH: QVQVQESGPGLVKPSETLSLTCTVSGNSITSYYAWNWIRQPPGKGLEWMGYITYSGTTSYNPSLKSRITISRDTSKNQFSLKLSSVTAADTAVYYCAREEYDDIYAVDYWGQGTLVTVSS VL: DIVMTQSPLSLPVTLGQPASISCRSSQSLVHSNGNTYLHWYQQRPGQSPRRLIYKVYNRFSGVPDRFSGSGSGTDFTLKISRVEAEDVGVYYCSQSTHFPTFGQGTRLEIKR | 82 pM
5 | anti-human IL-17A humanized monoclonal antibody AS15810 (antibody, human IgG1, kappa, V domains shown) VH: QVQVQESGPGLVKPSETLSLTCTVSGNSITSYYAWNWIRQPPGKGLEWMGYITYSGTTSYNPSLKSRVTISVDTSKNQFSLKLSSVTAADTAVYYCAREEYDDIYAVDYWGQGTLVTVSS VL: DVVMTQSPLSLPVTLGQPASISCRSSQSLVHSNGNTYLHWYQQRPGQSPRLLIYKVYNRFSGVPDRFSGSGSGTDFTLKISRVEAEDVGVYYCSQSTHFPTFGQGTRLEIKR | 83 pM
6 | anti-human IL-17A humanized monoclonal antibody AS15802 (antibody, human IgG1, kappa, V domains shown) VH: QVQLQESGPGLVKPSETLSLTCTVSGNSITSYYAWNWIRQPPGKGLEWMGYITYSGTTSYNPSLKSRVTISRDTSKNQFSLKLSSVTAADTAVYYCAREEYDDIYAVDYWGQGTLVTVSS VL: IIVMTQSPLSLPVTLGQPASISCRSSQSLVHSNGNTYLHWYQQRPGQSPRLLIYKVYNRFSGVPDRFSGSGSGTDFTLKISRVEAEDVGVYFCSQSTHFPTFGQGTRLEIKR | 88 pM
7 | anti-human IL-17A humanized monoclonal antibody AS15820 (antibody, human IgG1, kappa, V domains shown) VH: QVQLQESGPGLVKPSETLSLTCTVSGNSITSYYAWNWIRQPPGKGLEWMGYITYSGTTSYNPSLKSRVTISVDTSKNQFSLKLSSVTAADTAVYYCAREEYDDIYAVDYWGQGTLVTVSS VL: DIVMTQSPLSLPVTLGQPASISCRSSQSLVHSNGNTYLHWYQQRPGQSPRLLIYKVYNRFSGVPDRFSGSGSGTDFTLKISRVEAEDVGVYFCSQSTHFPTFGQGTRLEIKR | 89 pM

Each binder was assayed against T1, recombinant human IL-17A (assay: ELISA, recombinant human IL-17A coated at 1 µg/mL, HRP anti-mouse IgG, OD450nm).
Protocol: The plate was washed five times with PBST. […] The plate was washed five times with PBST. […] The plate was washed five times with PBST. 100 μL/well of colorimetric substrate TMB was added and incubated at room temperature for 10 minutes. Color development was terminated by adding 100 μL/well of 1 M H₂SO₄. The absorbance at 450 nm was read on a microplate reader.

Row | EC50 | Binder
8 | 165 pM | monoclonal antibody secreted by Clone No. 88 (antibody, V domains shown, Murine hybridoma antibody tested as culture supernatant; also called murine anti-human IL-17A monoclonal antibody) VH: DVQVQESGPGLVKPSQSLSLTCTVTGNSITSYYAWNWIRQFPGNKLEWMGYITYSGTTSYNPSLKSRISITRDTSKNQFFLQLNSVTTEDTATYYCAREEYDDIYAVDYWGQGTSVTVSS VL: IIVMTQTPLSLPVSLGDQASISCRSSQSLVHSNGNTYLHWYLQKPGQSPKLLIYKVYNRFSGVPDRFSGSGSGTDFTLKISRVEAEDLGVYFCSQSTHFPTFGGGTKLEIK
